Target: T1, SpyCatcher_β-lactamase protein ( | E. coli)
T1 construct: N-terminal leader as printed; TEM-1 β-lactamase of Escherichia coli without its signal peptide; C-terminal tail as printed; Printed mass 42.4 kDa; also called SpyC_β-lactamase; source: E. coli BL21 (DE3) Gold, purified (IMAC, SEC)
Assay: SpyTag/SpyCatcher covalent conjugation (isopeptide bond), analysed by SDS-PAGE; peptide:protein ratio 1.125:1 or 1.25:1, 50 µM SpyC_BLA; 50 mM HEPES, 200 mM NaCl, pH 7.0; 2 h at room temperature and/or overnight at 4 °C; conjugation efficiencies analysed on 4-12% NuPAGE Bis-Tris gels; conjugates then used for uptake into CHO-K1 and T47D cells
Details: both partners purified

B1: 1746_SpyT (peptide)
peptide: PLKPKKPKTQEKKKKQPPKPKKPKTQEKKKKQPPKPKRGASAHIVMVDAYKPTKG
notes: source: synthetic peptide (Pepscan or Mimotopes)
binding result: binds

B2: 1746c27_SpyT (peptide)
peptide: KKKKQPPKPKKPKTQEKKKKQPPKPKRGASAHIVMVDAYKPTKG
notes: phylomer CPP 1746c27, discovered from phylomer peptide libraries; source: synthetic peptide (Pepscan or Mimotopes)
binding result: binds

B3: 0169_SpyT (peptide)
peptide: PLTQRTLQRGKKPKQRQNWKKARTSSAKTAPKTVVSRTTSQRKGASAHIVMVDAYKPTKG
notes: phylomer CPP 0169, discovered from phylomer peptide libraries; source: synthetic peptide (Pepscan or Mimotopes)
binding result: binds

B4: 1869_SpyT (peptide)
peptide: PPHPRPLPAPAQSRKKQKGRAGRGHEKTGASVLRGPQKPHPLPAQLRGASAHIVMVDAYKPTKG
notes: phylomer CPP 1869, discovered from phylomer peptide libraries; source: synthetic peptide (Pepscan or Mimotopes)
binding result: binds

B5: TAT_SpyT (peptide)
peptide: GRKKRRQRRRGASAHIVMVDAYKPTKG
notes: canonical CPP TAT; source: synthetic peptide (Pepscan or Mimotopes)
binding result: binds

B6: 1788_SpyT (peptide)
peptide: LFVDKATPQIYYTPSESVTVKSKGKNRRKKSGASAHIVMVDAYKPTKG
notes: phylomer CPP 1788, discovered from phylomer peptide libraries; source: synthetic peptide (Pepscan or Mimotopes)
binding result: binds

B7: 0084_SpyT (peptide)
peptide: RKQKSLQTKLAENPPVPRKKRQSRPRWKQWLQKGASAHIVMVDAYKPTKG
notes: phylomer CPP 0084, discovered from phylomer peptide libraries; source: synthetic peptide (Pepscan or Mimotopes)
binding result: binds

B8: 0167_SpyT (peptide)
peptide: PSSTPATNVARPRLNPIRGHKFALAVPNSRTRGASAHIVMVDAYKPTKG
notes: phylomer CPP 0167, discovered from phylomer peptide libraries; source: synthetic peptide (Pepscan or Mimotopes)
binding result: binds
